Drawing on article PMC11408749, this text covers MTase activity of the DNMT3BΔ214-3L complex (MTase-Glo, 0.2 uM complex, 36-bp dsDNA), percent of the WT complex and percent of the population as hetero-tetramer (168 kDa peak, DNMT3B dimerised) for 3 substances.

Assay [1] addresses DNMT3BΔ214 (residues 215–853) D817G (human) (UniProt Q9UBC3).
Assay [2] shares this target. In words: AUC; sedimentation velocity, 40,000 rpm, 15 h, 20 C; 20 mM Tris-HCl pH 8.0, 300 mM NaCl, 1 mM TCEP, 5% glycerol; WT DNMT3BΔ214-3L at 2.5, 5.0 and 6.25 uM, mutant complexes at 5 uM; c(s) model in SEDFIT.
Assay [3] has as its target DNMT3BΔ214 (residues 215–853) H814R (human) (UniProt Q9UBC3).
For assay [4] the target is unchanged. In words: AUC; sedimentation velocity, 40,000 rpm, 15 h, 20 C; 20 mM Tris-HCl pH 8.0, 300 mM NaCl, 1 mM TCEP, 5% glycerol; WT DNMT3BΔ214-3L at 2.5, 5.0 and 6.25 uM, mutant complexes at 5 uM; c(s) model in SEDFIT.
The target of assay [5] is DNMT3BΔ214 (residues 215–853) V818M (human) (UniProt Q9UBC3).
The target is the same in assay [6]. In words: AUC; sedimentation velocity, 40,000 rpm, 15 h, 20 C; 20 mM Tris-HCl pH 8.0, 300 mM NaCl, 1 mM TCEP, 5% glycerol; WT DNMT3BΔ214-3L at 2.5, 5.0 and 6.25 uM, mutant complexes at 5 uM; c(s) model in SEDFIT.

Regarding “DNMT3BΔ214 (residues 215–853) D817G (from UniProt Q9UBC3 215-853) (domain or fragment)”, the MTase activity of the DNMT3BΔ214-3L complex (MTase-Glo, 0.2 uM complex, 36-bp dsDNA), percent of the WT complex in assay [1] is 5.43 % of WT. In assay [2], this substance came in with a percent of the population as hetero-tetramer (168 kDa peak, DNMT3B dimerised) of 4.9%.

As for “DNMT3BΔ214 (residues 215–853) H814R (from UniProt Q9UBC3 215-853) (domain or fragment)”, the MTase activity of the DNMT3BΔ214-3L complex (MTase-Glo, 0.2 uM complex, 36-bp dsDNA), percent of the WT complex in assay [3] is 1.09 % of WT. This substance also returned a percent of the population as hetero-tetramer (168 kDa peak, DNMT3B dimerised) in assay [4] of 1.5%.

For the substance “DNMT3BΔ214 (residues 215–853) V818M (from UniProt Q9UBC3 215-853) (domain or fragment)”, the MTase activity of the DNMT3BΔ214-3L complex (MTase-Glo, 0.2 uM complex, 36-bp dsDNA), percent of the WT complex in assay [5] is 35.9 % of WT. Further, the percent of the population as hetero-tetramer (168 kDa peak, DNMT3B dimerised) in assay [6] was 28.3%.
